Legend:
[1] = target: T1, DgpA/B/C (human intestinal bacterium PUE, UniProt A0A3Q9WUX0+A0A3Q9WWX8+A0A3Q9WXL1); experiment: inhibition of puerarin cleavage, HPLC; assay type: biochemical; conditions: proposed competitive with puerarin at DgpA pocket; substrate puerarin
T1 sequence (A0A3Q9WWX8 1-367): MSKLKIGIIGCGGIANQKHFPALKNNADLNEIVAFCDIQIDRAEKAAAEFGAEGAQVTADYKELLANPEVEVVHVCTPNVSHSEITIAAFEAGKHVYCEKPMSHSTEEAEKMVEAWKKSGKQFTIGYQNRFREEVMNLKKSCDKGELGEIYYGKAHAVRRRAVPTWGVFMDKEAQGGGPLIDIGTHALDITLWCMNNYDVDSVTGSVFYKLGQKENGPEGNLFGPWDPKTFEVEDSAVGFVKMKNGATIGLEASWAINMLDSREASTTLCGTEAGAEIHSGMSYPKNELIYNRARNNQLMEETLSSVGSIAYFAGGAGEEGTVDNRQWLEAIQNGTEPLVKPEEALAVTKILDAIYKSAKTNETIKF
T1 sequence (A0A3Q9WXL1 1-324): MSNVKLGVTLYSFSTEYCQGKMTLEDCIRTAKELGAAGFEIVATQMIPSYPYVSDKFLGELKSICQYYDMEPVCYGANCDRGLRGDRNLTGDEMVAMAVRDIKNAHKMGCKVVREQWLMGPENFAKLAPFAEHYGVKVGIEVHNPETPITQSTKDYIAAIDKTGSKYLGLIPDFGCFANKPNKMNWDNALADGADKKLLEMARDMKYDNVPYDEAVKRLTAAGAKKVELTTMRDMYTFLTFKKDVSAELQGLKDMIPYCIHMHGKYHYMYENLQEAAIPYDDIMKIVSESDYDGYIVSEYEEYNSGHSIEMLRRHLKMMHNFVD
T1 sequence (A0A3Q9WUX0 1-142): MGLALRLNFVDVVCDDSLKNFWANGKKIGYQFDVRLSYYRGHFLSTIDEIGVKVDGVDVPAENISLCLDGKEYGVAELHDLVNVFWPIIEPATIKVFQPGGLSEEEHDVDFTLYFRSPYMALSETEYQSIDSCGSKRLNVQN

[2] = target: DgpA (human intestinal bacterium PUE); experiment: SEC
[3] = target: DgpA (human intestinal bacterium PUE); experiment: native gel or EMSA

Compound	inhibition ratio [1]	stoichiometry N [2]	stoichiometry N [3]
OC[C@H]1OC(O)[C@H](O)[C@@H](O)[C@@H]1O (stereo partly drawn) [glucose]	cleaving activity of DgpA/B/C was significantly attenuated proportional to glucose concentration	–	–
DgpA (enzyme)	–	6	6
